Source: PMC4357698

Key:
[1] = target: 40S ribosomal subunit (UniProt P62841); experiment: co-sedimentation
[2] = target: 43S preinitiation complex reconstituted from purified components (UniProt P62841); experiment: co-sedimentation

share of h9/14 comigrating with the subunit (fraction of h9/14) [1]: 0.33 | stoichiometry N (binding sites on 40S) [1]: > 1 | fold reduction of bound SRP9/14 against the scAluY^A RNP sample [2]: 3 fold | percent of SRP9/14 comigrating with the complex [2]: 15%
Substance: human SRP9/14 protein dimer (from UniProt P49458 1-86; P37108 1-136) (complex)
